B1: TACI-Ig soluble receptor (TACI-Fc4 fusion protein) (Fc fusion, part only; not given: Fc4 part, part only)
chain, part: MSGLGRSRRGGRSRVDQEERFPQGLWTGVAMRSCPEEQYWDPLLGTCMSCKTICNHQSQRTCAAFCRSLSCRKEQGKFYDHLLRDCISCASICGQHPKQCAYFCENKLRSPVNLPPELRRQRSGEVENNSDNSGRYQGLEHRGSEASPALPGLKLSADQVALVYS
B2: BCMA (SEQ ID NO:8) (receptor)
chain: MLQMAGQCSQNEYFDSLLHACIPCQLRCSSNTPPLTCQRYCNASVTNSVKGTNAILWTCLGLSLIISLAVFVLMFLLRKISSEPLKDEFKNTGSGLLGMANIDLEKSRTGDEIILPRGLEYTVEECTCEDCIKSKPKVDSDHCFPLPAMEEGATILVTTKTNDYCKSLPAALSATEIEKSISAR
notes: also called BCMA-BHK

What was measured:
soluble ztnf4 (human) = soluble ztnf4 (human) (UniProt Q9Y275); assay: cell-based or functional assay
Chain of soluble ztnf4 (human) (Q9Y275 134-285 limits assumed): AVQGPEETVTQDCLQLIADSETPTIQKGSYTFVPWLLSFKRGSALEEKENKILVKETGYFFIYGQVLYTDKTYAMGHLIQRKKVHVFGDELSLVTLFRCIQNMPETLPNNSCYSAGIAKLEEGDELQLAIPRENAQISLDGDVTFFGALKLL

soluble I^125-ztnf4 = target: T1, soluble I^125-ztnf4 (human, UniProt Q9Y275 134-285, limits assumed, 125I-labelled); assay: Scatchard analysis of soluble 125I-ztnf4 on stable BHK transfectants expressing BCMA
T1 construct: also called ztnf4 sol; neutrokine alpha
T1 sequence (Q9Y275 134-285 limits assumed): as above

| Binder | inhibition of soluble ztnf4-stimulated human B cell proliferation (3H thymidine, with IL-4) (fold molar excess) (soluble ztnf4 (human)) | Kd (soluble I^125-ztnf4) |
| --- | --- | --- |
| B1 | 10 |  |
| B2 |  | 1.25 nM |

Reference: patent EP1354598A2 (ZymoGenetics, Inc., dated 2003)
